Assay results: article PMC2997501, “Different Residues on the Surface of the Methanothermobacter thermautotrophicus MCM Helicase Interact with Single- and Double-Stranded DNA” (Archaea, 2010)

B1: Methanothermobacter thermautotrophicus MCM protein, G211A mutant (enzyme, UniProt O27798 1-666, looked up)
chain: MMKTVDKSKTLTKFEEFFSLQDYKDRVFEAIEKYPNVRSIEVDYLDLEMFDPDLADLLIEKPDDVIRAAQQAIRNIDRLRKNVDLNIRFSGISNVIPLRELRSKFIGKFVAVDGIVRKTDEIRPRIVKAVFECRGCMRHHAVTQSTNMITEPSLCSECGGRSFRLLQDESEFLDTQTLKLQEPLENLSGGEQPRQITVVLEDDLVDTLTPADIVRVTGTLRTVRDERTKRFKNFIYGNYTEFLEQEFEELQISEEDEEKIKELAGDPNIYEKIIRSTAPSIHGYREVKEAIALQLFGGTGKELDDKTRLRGDIHILIVGDPGIGKSQMLKYVSKLAPRGIYTSGKGTSGVGLTAAAVRDEFGGWSLEAGALVLGDKGNVCVDELDKMREEDRSAIHEALEQQTISIAKAGIMATLNSRCSVLAAANPKFGRFDSYKSIAEQIDLPSTILSRFDLIFVVEDKPDEEKDRELARHILKTHKEDHMPFEIDPELLRKYIAYARKNVRPVLTDEAMQVLEDFYVSMRASAADEDSPVPITARQLEALVRLSEASAKIKLKEHVEAEDARKAIKLSQACLKQVGYDPETGKIDIDKVEGRTPKSERDKFRLLLELIKEYEDDYGGRAPTNILITEMMDRYNVSEEKVEELIRILKDKGAIFEPARGYLKIV
notes: MCM helicase of Methanothermobacter thermautotrophicus, derivative of the full-length enzyme; source: E. coli DE3 codon plus cells, purified on a Ni-column
B2: Methanothermobacter thermautotrophicus MCM protein, D212N mutant (enzyme, UniProt O27798 1-666, looked up)
chain: MMKTVDKSKTLTKFEEFFSLQDYKDRVFEAIEKYPNVRSIEVDYLDLEMFDPDLADLLIEKPDDVIRAAQQAIRNIDRLRKNVDLNIRFSGISNVIPLRELRSKFIGKFVAVDGIVRKTDEIRPRIVKAVFECRGCMRHHAVTQSTNMITEPSLCSECGGRSFRLLQDESEFLDTQTLKLQEPLENLSGGEQPRQITVVLEDDLVDTLTPGNIVRVTGTLRTVRDERTKRFKNFIYGNYTEFLEQEFEELQISEEDEEKIKELAGDPNIYEKIIRSTAPSIHGYREVKEAIALQLFGGTGKELDDKTRLRGDIHILIVGDPGIGKSQMLKYVSKLAPRGIYTSGKGTSGVGLTAAAVRDEFGGWSLEAGALVLGDKGNVCVDELDKMREEDRSAIHEALEQQTISIAKAGIMATLNSRCSVLAAANPKFGRFDSYKSIAEQIDLPSTILSRFDLIFVVEDKPDEEKDRELARHILKTHKEDHMPFEIDPELLRKYIAYARKNVRPVLTDEAMQVLEDFYVSMRASAADEDSPVPITARQLEALVRLSEASAKIKLKEHVEAEDARKAIKLSQACLKQVGYDPETGKIDIDKVEGRTPKSERDKFRLLLELIKEYEDDYGGRAPTNILITEMMDRYNVSEEKVEELIRILKDKGAIFEPARGYLKIV
notes: as for B1
B3: Methanothermobacter thermautotrophicus MCM protein, PG210,211GA double mutant (enzyme, UniProt O27798 1-666, looked up)
chain: MMKTVDKSKTLTKFEEFFSLQDYKDRVFEAIEKYPNVRSIEVDYLDLEMFDPDLADLLIEKPDDVIRAAQQAIRNIDRLRKNVDLNIRFSGISNVIPLRELRSKFIGKFVAVDGIVRKTDEIRPRIVKAVFECRGCMRHHAVTQSTNMITEPSLCSECGGRSFRLLQDESEFLDTQTLKLQEPLENLSGGEQPRQITVVLEDDLVDTLTGADIVRVTGTLRTVRDERTKRFKNFIYGNYTEFLEQEFEELQISEEDEEKIKELAGDPNIYEKIIRSTAPSIHGYREVKEAIALQLFGGTGKELDDKTRLRGDIHILIVGDPGIGKSQMLKYVSKLAPRGIYTSGKGTSGVGLTAAAVRDEFGGWSLEAGALVLGDKGNVCVDELDKMREEDRSAIHEALEQQTISIAKAGIMATLNSRCSVLAAANPKFGRFDSYKSIAEQIDLPSTILSRFDLIFVVEDKPDEEKDRELARHILKTHKEDHMPFEIDPELLRKYIAYARKNVRPVLTDEAMQVLEDFYVSMRASAADEDSPVPITARQLEALVRLSEASAKIKLKEHVEAEDARKAIKLSQACLKQVGYDPETGKIDIDKVEGRTPKSERDKFRLLLELIKEYEDDYGGRAPTNILITEMMDRYNVSEEKVEELIRILKDKGAIFEPARGYLKIV
notes: as for B1

Target: the molecule itself
Assay: SEC; 100 micrograms of protein on a superose-6 column (HR10/30); 20 mM Tris-HCl pH 7.5, 150 mM NaCl, 10% glycerol; 22°C, 0.2 ml/min; A280; size markers thyroglobulin, ferritin, albumin, ovalbumin

Binding result, binds:
B1
B2
B3
